# Positions count from the first letter of the chain named. Names may count otherwise.
# T1: EsCas13d, nuclease-dead (Eubacterium siraeum, UniProt B0MS50, R295A;H300A;R849A;H854A)
# T1 sequence: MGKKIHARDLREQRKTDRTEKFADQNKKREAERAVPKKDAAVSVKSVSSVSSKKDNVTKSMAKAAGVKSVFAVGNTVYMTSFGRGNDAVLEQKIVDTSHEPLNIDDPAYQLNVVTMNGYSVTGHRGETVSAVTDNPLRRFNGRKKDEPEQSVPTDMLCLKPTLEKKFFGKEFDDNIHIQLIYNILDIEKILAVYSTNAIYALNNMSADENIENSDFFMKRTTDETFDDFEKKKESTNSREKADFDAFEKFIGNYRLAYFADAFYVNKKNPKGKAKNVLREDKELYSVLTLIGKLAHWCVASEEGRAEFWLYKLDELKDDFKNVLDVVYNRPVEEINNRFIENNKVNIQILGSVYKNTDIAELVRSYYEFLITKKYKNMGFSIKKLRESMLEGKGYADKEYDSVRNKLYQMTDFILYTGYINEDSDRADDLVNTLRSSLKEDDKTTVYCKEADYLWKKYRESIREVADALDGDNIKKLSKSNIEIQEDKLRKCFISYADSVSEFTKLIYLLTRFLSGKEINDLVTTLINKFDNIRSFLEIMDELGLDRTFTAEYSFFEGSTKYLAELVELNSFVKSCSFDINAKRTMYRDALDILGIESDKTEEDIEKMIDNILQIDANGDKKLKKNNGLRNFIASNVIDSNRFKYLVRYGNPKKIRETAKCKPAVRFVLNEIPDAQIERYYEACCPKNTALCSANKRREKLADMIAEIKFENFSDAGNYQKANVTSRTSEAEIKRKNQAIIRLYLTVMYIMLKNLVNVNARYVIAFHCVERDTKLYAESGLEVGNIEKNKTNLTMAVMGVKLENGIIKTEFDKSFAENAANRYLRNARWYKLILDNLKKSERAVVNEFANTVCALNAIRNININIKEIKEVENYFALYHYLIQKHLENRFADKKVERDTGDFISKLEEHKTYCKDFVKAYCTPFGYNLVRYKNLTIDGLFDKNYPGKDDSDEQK
# B1: target 1 MT 5'PFS ACG 3'PFS AUC (mixed)
# RNA 1: CACCCGUGCAAAAAUGCAGGGGUCUAAAACUGAGCGGAUAACCUCUCUAUGG
# RNA 2: GGGAAUGGAUCCACAUCUACGAAUUCACGCCAUAGAGAGGUUAUCCGCUCAAUCAGAUCGGAAGAGCACACGU
# B2: target 1 MT 5'PFS ACG 3'PFS AUA (mixed)
# RNA 1: B1 RNA 1
# RNA 2: B1 RNA 2 with C54A
# B3: target 1 insC 3' of 12,insG 3' of 4 (mixed)
# RNA 1: B1 RNA 1
# RNA 2: GGGAAUGGAUCCACAUCUACGAAUUCGUACCAUAGAGAGGCUUAUCCGCGUCACCGAGAUCGGAAGAGCACACGU
# B4: target 1 MT 5'PFS GAG 3'PFS UCC (mixed)
# RNA 1: B1 RNA 1
# RNA 2: B1 RNA 2 with A27G, C28A, A52U, U53C
# B5: target 1 C4A,A18U (mixed)
# RNA 1: B1 RNA 1
# RNA 2: B1 RNA 2 with A27G, C28U, G29A, A34U, C48A, A52C, U53C, C54G
# B6: target 1 MT 5'PFS CUG 3'PFS AGG (mixed)
# RNA 1: B1 RNA 1
# RNA 2: B1 RNA 2 with A27C, C28U, U53G, C54G
# B7: target 1 MT 5'PFS GAG 3'PFS UCU (mixed)
# RNA 1: B1 RNA 1
# RNA 2: B1 RNA 2 with A27G, C28A, A52U, U53C, C54U
# B8: target 1 MT 5'PFS CCU 3'PFS CAU (mixed)
# RNA 1: B1 RNA 1
# RNA 2: B1 RNA 2 with A27C, G29U, A52C, U53A, C54U
# B9: target 1 MT 5'PFS AUG 3'PFS AUG (mixed)
# RNA 1: B1 RNA 1
# RNA 2: B1 RNA 2 with C28U, C54G
# B10: target 1 insC 3' of 12,insC 3' of 12 (mixed)
# RNA 1: B1 RNA 1
# RNA 2: B3 RNA 2 with U42C, A44U, U45A, C46U, G48C, C49G, G50C
# B11: target 1 MT 5'PFS ACG 3'PFS AUG (mixed)
# RNA 1: B1 RNA 1
# RNA 2: B1 RNA 2 with C54G
# B12: target 1 MT 5'PFS GAG 3'PFS UCG (mixed)
# RNA 1: B1 RNA 1
# RNA 2: B1 RNA 2 with A27G, C28A, A52U, U53C, C54G
# B13: target 1 MT 5'PFS GAG 3'PFS UCA (mixed)
# RNA 1: B1 RNA 1
# RNA 2: B1 RNA 2 with A27G, C28A, A52U, U53C, C54A
# B14: target 2 MT 5'PFS CGG 3'PFS CAC (mixed)
# RNA 1: CACCCGUGCAAAAUUGCAGGGGUCUAAAACCUUCUCCAAAUUGUUUCAUCCU
# RNA 2: GGGAAUGGAUCCACAUCUACGAAUUCCGGAGGAUGAAACAAUUUGGAGAAGCACAGAUCGGAAGAGCACACGU
# B15: target 2 MT 5'PFS UAG 3'PFS CCG (mixed)
# RNA 1: B14 RNA 1
# RNA 2: B14 RNA 2 with C27U, G28A, A53C, C54G
# B16: target 2 MT 5'PFS UGA 3'PFS AUU (mixed)
# RNA 1: B14 RNA 1
# RNA 2: B14 RNA 2 with C27U, G29A, C52A, A53U, C54U
# B17: target 2 MT 5'PFS CGG 3'PFS CAA (mixed)
# RNA 1: B14 RNA 1
# RNA 2: B14 RNA 2 with C54A
# B18: target 2 MT 5'PFS CUC 3'PFS UUC (mixed)
# RNA 1: B14 RNA 1
# RNA 2: B14 RNA 2 with G28U, G29C, C52U, A53U
# B19: target 2 MT 5'PFS CGG 3'PFS CAU (mixed)
# RNA 1: B14 RNA 1
# RNA 2: B14 RNA 2 with C54U
# B20: target 2 MT 5'PFS UAG 3'PFS CCU (mixed)
# RNA 1: B14 RNA 1
# RNA 2: B14 RNA 2 with C27U, G28A, A53C, C54U
# B21: target 2 MT 5'PFS UAG 3'PFS AAA (mixed)
# RNA 1: B14 RNA 1
# RNA 2: B14 RNA 2 with C27U, G28A, C52A, C54A
# B22: target 2 MT 5'PFS CAG 3'PFS UGC (mixed)
# RNA 1: B14 RNA 1
# RNA 2: B14 RNA 2 with G28A, C52U, A53G
# B23: target 2 MT 5'PFS UAG 3'PFS AAC (mixed)
# RNA 1: B14 RNA 1
# RNA 2: B14 RNA 2 with C27U, G28A, C52A
# B24: target 2 MT 5'PFS CUC 3'PFS UUU (mixed)
# RNA 1: B14 RNA 1
# RNA 2: B14 RNA 2 with G28U, G29C, C52U, A53U, C54U
# B25: target 2 MT 5'PFS UAG 3'PFS AAU (mixed)
# RNA 1: B14 RNA 1
# RNA 2: B14 RNA 2 with C27U, G28A, C52A, C54U
# B26: target 2 MT 5'PFS AUU 3'PFS CUC (mixed)
# RNA 1: B14 RNA 1
# RNA 2: B14 RNA 2 with C27A, G28U, G29U, A53U
# B27: target 2 MT 5'PFS UAG 3'PFS CCA (mixed)
# RNA 1: B14 RNA 1
# RNA 2: B14 RNA 2 with C27U, G28A, A53C, C54A
# B28: target 2 MT 5'PFS AUU 3'PFS UCC (mixed)
# RNA 1: B14 RNA 1
# RNA 2: B14 RNA 2 with C27A, G28U, G29U, C52U, A53C
# B29: target 2 MT 5'PFS UGA 3'PFS AUA (mixed)
# RNA 1: B14 RNA 1
# RNA 2: B14 RNA 2 with C27U, G29A, C52A, A53U, C54A
# B30: target 2 MT 5'PFS CGG 3'PFS CAG (mixed)
# RNA 1: B14 RNA 1
# RNA 2: B14 RNA 2 with C54G
# B31: target 2 MT 5'PFS UAG 3'PFS AAG (mixed)
# RNA 1: B14 RNA 1
# RNA 2: B14 RNA 2 with C27U, G28A, C52A, C54G
# B32: target 2 MT 5'PFS UCG 3'PFS UCA (mixed)
# RNA 1: B14 RNA 1
# RNA 2: B14 RNA 2 with C27U, G28C, C52U, A53C, C54A
# B33: target 2 MT 5'PFS UGA 3'PFS AUC (mixed)
# RNA 1: B14 RNA 1
# RNA 2: B14 RNA 2 with C27U, G29A, C52A, A53U
# B34: target 2 MT 5'PFS CUC 3'PFS UUA (mixed)
# RNA 1: B14 RNA 1
# RNA 2: B14 RNA 2 with G28U, G29C, C52U, A53U, C54A
# B35: target 2 MT 5'PFS AUU 3'PFS CUA (mixed)
# RNA 1: B14 RNA 1
# RNA 2: B14 RNA 2 with C27A, G28U, G29U, A53U, C54A
# B36: target 2 MT 5'PFS CAG 3'PFS UGA (mixed)
# RNA 1: B14 RNA 1
# RNA 2: B14 RNA 2 with G28A, C52U, A53G, C54A
# B37: target 2 MT 5'PFS AGG 3'PFS AUC (mixed)
# RNA 1: B14 RNA 1
# RNA 2: B14 RNA 2 with C27A, C52A, A53U
# B38: target 2 MT 5'PFS AUU 3'PFS CUG (mixed)
# RNA 1: B14 RNA 1
# RNA 2: B14 RNA 2 with C27A, G28U, G29U, A53U, C54G
# Target: T1, EsCas13d, nuclease-dead
# Test: crRNA (strand 1, pre-loaded); Mg2+; 40 mM Tris-HCl pH 7.5, 150 mM NaCl, 6 mM MgCl2, 1 mM DTT, 0.1% Tween-20, 0.2 mg/ml BSA; 25 C; 10 min per concentration, then washed
# Settings: tags: His6-TwinStrep-SUMO cleaved; N-terminal SNAP kept (SNAP-Surface 488); label: 3' end held by stalled T7 RNA polymerase
row,Binder,Kd [nM]
1,B1,~24.5
2,B2,16.5 ± 6.5
3,B3,5.7 ± 0.5
4,B4,55.5 ± 26.5
5,B5,21.1 ± 2.4
6,B6,66.5 ± 33
7,B7,29 ± 9
8,B8,13.5 ± 5.5
9,B9,49 ± 18
10,B10,18.3 ± 1.3
11,B11,45 ± 18.5
12,B12,42 ± 16
13,B13,~47.5
14,B14,6.8 ± 1.3
15,B15,2.56 ± 0.17
16,B16,7.5 ± 1.3
17,B17,3.4 ± 0.5
18,B18,6.5 ± 1.6
19,B19,4.4 ± 0.5

row,Binder,Kd [nM]
1,B20,54 ± 17
2,B21,2.2 ± 0.4
3,B22,4.7 ± 1.2
4,B23,3.6 ± 0.4
5,B24,5.3 ± 0.7
6,B25,3.8 ± 0.5
7,B26,16.6 ± 3.1
8,B27,5.1 ± 0.4
9,B28,16.7 ± 1.8
10,B29,7.1 ± 1.4
11,B30,4.3 ± 0.6
12,B31,2.87 ± 0.28
13,B32,21 ± 5
14,B33,8.7 ± 1.1
15,B34,4.9 ± 0.7
16,B35,14 ± 4
17,B36,6.8 ± 1.4
18,B37,5.5 ± 0.6
19,B38,9.7 ± 1.3

# — PMC10786891, “Massively parallel profiling of RNA-targeting CRISPR-Cas13d”
